The target in this series is DNMT3AC R882H (human, UniProt Q9Y6K1 612-912, R882H). Nature of the series: fluorescence anisotropy. (Fluorescence polarisation rises when a labelled molecule tumbles more slowly, as on binding a larger partner.)
Chain of DNMT3AC R882H (Q9Y6K1 612-912 R882H): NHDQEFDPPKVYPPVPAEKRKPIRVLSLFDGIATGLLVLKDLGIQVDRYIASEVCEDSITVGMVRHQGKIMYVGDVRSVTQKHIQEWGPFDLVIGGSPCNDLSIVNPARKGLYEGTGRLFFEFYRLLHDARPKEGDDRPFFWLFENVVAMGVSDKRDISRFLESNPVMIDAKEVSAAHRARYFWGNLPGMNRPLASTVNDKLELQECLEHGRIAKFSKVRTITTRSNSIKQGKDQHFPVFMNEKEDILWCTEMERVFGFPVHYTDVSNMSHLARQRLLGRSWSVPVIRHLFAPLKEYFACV

B1: Cy5-labeled 29mer with two CpG sites (dsDNA)
DNA 1: ACTTGCAACGGTCCTAACCGTCACCTCTT
DNA 2: AAGAGGTGACGGTTAGGACCGTTGCAAGT
As a reminder, the Kd is the free concentration of one partner at which half of the binding sites on the other are occupied at equilibrium, for simple one-to-one binding. A high value points to a looser complex. On to B1, for which the Kd worked out at 209 ± 19 nM.
